The values below are quoted from earlier work in article PMC10742151.

The target of series [1] is CA125 (ovarian cancer biomarker antigen) (UniProt Q8WXI7). As to conditions: AFM chip (DSP-activated APTES mica) with immobilized aptamer incubated in CA125 solution, then washed with 0.01% Emulgen 913; buffer, salt, pH and temperature ….
The target is the same in series [2]. As to conditions: AFM chip (DSP-activated APTES mica) with immobilized aptamer incubated in CA125 solution, then washed with 0.01% Emulgen 913; buffer, salt, pH and temperature …. This is another data set of the same source.

Read-outs that look alike come from different tables or passages of the source.

As to “TAGGGAAGAGAAGGACATATGATGATCAACAACACAAGGGGGGGGGTATCTAGTTGACTAGTACATGACCACTTGA [apta#2 (apta#2.43)]”, in series [1], the dissociation constant (Kd) was 239 nM. As to “TAGGGAAGAGAAGGACATATGATTTTAGGGAAGAGAAGGACTTTTATGCCGCCTTGACTAGTACATGACCACTTGA [apta#1 (apta#2.26)]”, the Kd in series [1] is 166 nM.

“apta#3 (ATW0055, BasePair Biotechnologies)”: in series [2], the Kd was 33.8 nM.

By Kd is commonly meant the equilibrium constant for the complex coming apart.
